Measurements reported in article PMC2893186 (BMC Structural Biology, 2010).

Target: the molecule itself
Experiment: crystal structure; crystals grown from purified His-tagged ZHX2 HD2-3 (OPPF_2273), 20% PEG6000, 0.2 M LiCl, HEPES pH7; protein cleaved in the droplet, two molecules of HD2 in the asymmetric unit; 2.70 Å, data at 100 K

B1: ZHX2 HD2 (homeodomain 2 of human zinc-fingers and homeoboxes 2), proteolytic fragment derived from OPPF_2273 (ZHX2 HD2-3) (domain or fragment)
chain: RKKTKEQIAHLKASFLQSQFPDDAEVYRLIEVTGLARSEIKKWFSDHRYRCQRGIVHI
notes: ZHX2 (zinc-fingers and homeoboxes 2), human; homeodomain 2; Expressed as construct OPPF_2273 (HD2-3, aa 444-582); HD2-HD3 was cleaved by proteolysis after purification and only HD2 crystallized; Cys494 lies in the fragment; Homodimer in the crystal, with helix I domain-swapped and a disulfide bridge between the Cys494 of the two subunits; the deposited entry would show the ordered residues; also …
- stoichiometry N: 2
